In the Human Domainome abundance scans (Beltran et al. 2025):

B1: SWI/SNF complex subunit SMARCC1, residues 620 to 663; numbered along this chain, Q92922 (parent)
chain: GREWTEQETLLLLEALEMYKDDWNKVSEHVGSRTQDECILHFLR
B2: SWI/SNF complex subunit SMARCC2, residues 599 to 641; numbered along this chain, Q8TAQ2 (parent)
chain: REWTEQETLLLLEALEMYKDDWNKVSEHVGSRTQDECILHFLR

Variants of: B1
Test: abundance fitness (aPCA) (normalised: wild type 0, dead -1); higher = more abundant; growth selection in yeast, the domain comes from the species named
Details: Homo sapiens

Abundance fitness: each site, then its substitutions
G1: Y 0.191, W -0.293, H -0.147, R -0.383, D 0.277, F -0.122, I 0.128, A 0.081
W4: I 0.253, A -0.254, L -0.285, G -0.153, M -0.141, C -0.526, D -0.168, R -0.084, N -0.265, H -0.4, E 0.023
E3: Y 0.229, W -0.674, F 0.178, S 0.329, G 0.158, V 0.312, P 0.077, C -0.353, M -0.063, A -0.04, D 0.311, Q 0.12, L -0.03
R2: I 0.415, L -0.719, V 0.086, G -0.051, S -0.147, D 0.237, N 0.288, Q -0.298, A 0.288, W -0.023, K 0.244, E 0.145, F 0.253, C 0.084, Y -0.04, T 0.174

Variants of: B2
Test: as above
Details: Homo sapiens

Abundance fitness of substitutions, site by site:
H40: G -0.178, D -0.173, W -0.139, T -0.27, Y 0.272, S -0.383, A -0.081, M -0.148, R 0.096, P -0.589, Q -0.052, N -0.343, L -0.41, V -0.376, I -0.431
G30: D -0.07, N -0.164, M -0.341, L -0.546, T -0.031, Y -0.143, C -0.064, H -0.711, S -0.143, A -0.057, E 0.092, W -0.832, I -0.147, R -0.211, F -0.325, K -0.011, Q -0.668
F41: G 0.417, I -0.299, L -0.487, T 0.047, M 0.059, R 0.501, D 0.344, N 0.581, P 0.43, H 0.442, C -0.425, V -0.452, Y 0.185, Q 0.375, S 0.324, E 0.354
V29: D -0.714, E -0.711, Q -0.548, G -0.835, W -0.931, H -0.931, A -0.695, S -1.3, F -0.668, L -0.07, C -0.635, P -0.865, T -0.297, R -1.09, K -0.53, M 0.092
K24: W -0.351
C37: T -0.525, A -0.332, D -0.471, E -0.598, R -0.697, L -0.844, P -0.708, V -0.134, Q -0.2, G -0.833, N -0.67, W -0.924, H -0.353, S -0.428, K -0.328, F -0.361
D35: S 0.087, P 0.066, M 0.008, N 0.236, I -0.388, A 0.121, K 0.047, T -0.213, F -0.284, E -0.035, Y -0.486, G 0.046, H 0.108, R 0.027, V -0.556, Q 0.378
S26: K 0.211, F -0.709, W -0.517, R 0.219, N -0.62, G 0.084, Q -0.449, I -0.449, H 0.095, P -0.444, M 0.199, T 0.115, A 0.303, V 0.071, L -0.27, E 0.081, Y -0.252, C -0.07
H28: A -0.381, R -0.294, T -0.256, N -0.853
